Results on 1 protein are retold here after patent publication US20030166036.

The target of series [1] is proPSA (precursor, zymogen form of PSA), recombinant, P07288.
Series [2] has as its target prostate specific antigen (PSA), mature form.

prostate specific antigen (PSA), mature form, sequence (chain, as listed by the source): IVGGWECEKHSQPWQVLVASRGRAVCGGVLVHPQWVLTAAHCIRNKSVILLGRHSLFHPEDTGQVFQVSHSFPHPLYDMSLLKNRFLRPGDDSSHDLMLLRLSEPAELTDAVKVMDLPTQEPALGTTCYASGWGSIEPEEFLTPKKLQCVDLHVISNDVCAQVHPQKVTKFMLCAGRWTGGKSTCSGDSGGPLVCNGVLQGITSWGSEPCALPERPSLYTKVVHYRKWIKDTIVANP
proPSA (precursor, zymogen form of PSA), recombinant, P07288, sequence (P07288 18-261): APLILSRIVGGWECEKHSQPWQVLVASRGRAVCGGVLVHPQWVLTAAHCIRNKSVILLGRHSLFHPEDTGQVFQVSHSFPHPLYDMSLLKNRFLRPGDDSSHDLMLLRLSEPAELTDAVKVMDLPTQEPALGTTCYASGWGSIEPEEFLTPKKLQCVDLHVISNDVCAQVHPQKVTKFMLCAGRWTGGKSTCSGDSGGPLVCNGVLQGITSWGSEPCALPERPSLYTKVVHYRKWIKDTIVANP

B1: lysyl endopeptidase C (Wako Chemicals USA) (protein)
chain: GVSGSCNIDVVCPEGDGRRDIIRAVGAYSKSGTLACTGSLVNNTANDRKMYFLTAHHCGMGTASTAASIVVYWNYQNSTCRAPNTPASGANGDGSMSQTQSGSTVKATYATSDFTLLELNNAANPAFNLFWAGWDRRDQNYPGAIAIHHPNVAEKRISNSTSPTSFVAWGGGAGTTHLNVQWQPSGGVTEPGSSGSPIYSPEKRVLGQLHGGPSSCSATGTNRSDQYGRVFTSWTGGGAAASRLSDWLDPASTGAQFIDGLDSGGGTP
Consider B1, for which, in series [1], the “initial rate of cleavage of the Lys182 in pPSA” value is 8% per minute and the “rate of cleavage at Lys145 in pPSA” value is reported as “about 0.6% per minute”. Moreover, in series [2], the “initial rate of cleavage at Lys182” value came to 12% per minute; the “percent of PSA cleaved at Lys182 after 30 minutes of incubation” value is 100% of the PSA had been cleaved at Lys182; the “rate of cleavage at Lys145” value is 0.3% per minute; the “relative rate of cleavage, Lys182 against Lys145” value was “Lys182 is cleaved approximately 30 times more rapidly than Lys145 by LysC”.
